The record followed here is the nanobody polyreactivity screen of Harvey et al. (2022).

A short description of this data set: yeast display, Sf9 membrane polyspecificity reagent, FACS + sequencing; frameworks hold sequencing errors. An outline of the steps: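 Genes from sorted yeast were amplified by colony PCR, read by MiSeq 2 × 250 sequencing and filtered on CDR length. These cells carried a synthetic nanobody library in Saccharomyces cerevisiae BJ5465 and were sorted by FACS into low and high (top ~1%) gates on anti-HA and streptavidin fluorescence. Polyreactivity is labelled according to the gate of origin.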
“QVQLVESGGGLVQAGGSLRLSCAASGYTFYVYAMGWYRQAPGKERELVAAISSDTGRTYYADSVKGRFTISRDNAKNTVYLQMNSLKPEDTAVYYCAKRRVYGGYDYWGQGTQVTVSS”: the “polyreactivity (PSR sort gate)” value was “low polyreactivity”.
On to “QVQLVESGGGLVQARGSLRLSCAASGRTFRYYTMGWYRQAPGKEREFVAAITFRGGSTYYADSVKGRFTISRDNAKNTVYLQMNSLKPEDTAVYYCAAVGRYSRYPYSDTYGYWGQGTQVTVSS”, for which the “polyreactivity (PSR sort gate)” value was “high polyreactivity”.
In the case of “QDQLVESGVGFVQAGVSLRLSSAASGSIFYLNAMGWYRQAPGKERELVAAITNGGSTYADSVKGRFTISRDNAKNTVYLPMNSLKPEDPAVYYCATRSWELGDYLGQGTQVTVSS”, the “polyreactivity (PSR sort gate)” value is listed as “low polyreactivity”.
As for “QVQLVESGGGLVQAGGTLRLSCAASGSTYDTYTMGGYSQAPGKERVLVAAITSSGDSTYYADSVKGRSTISRDNAKNTVYLQMNSLKPEDTAVYYCAAEVTVWLYYLYVGEYEYWGQGTQVTVSS”, the entry is “high polyreactivity”.
With “QVQLVESGGGLVQAGGSLRLSCAASGRIFKYNAMGWYRQAPGKERELVAAISSSGGSTYYADSVKGRFTISRDNAKNTVYLQMNSLKPEDTAVYYCAARYAPTLSVYRFYYWGQGTQVTVSS” the entry was “high polyreactivity”.
As to “QVQLVESGGGLVQAGGSLRLSCAASGITFDVNAMGWYRQAPGKERELVAAITAGGNTYYADSVKGRFTISRDNAKNTVYLQLNSLKPEVTAVYYCATQSYYGFYDYDYWGQGTQVTVSS”, the “polyreactivity (PSR sort gate)” value is listed as “low polyreactivity”.
As for “QVQLVESGGGLVQAGGSLRLSCAASGRIFYTYAMGWYRPAPGKERELVAAITYRGGSTYYADSVKGRFTISRDNAKNTVYLQMNSLKPEDTAVYYCAGRPGRGPDSRWRYKYDYWGQGTQVTVSS”, the “polyreactivity (PSR sort gate)” value is on record as “high polyreactivity”.
As to “QVQLVESGGGLVQAGGSLRLSCAASGRIFSSYAMGWYRQAPWKERELVAAISGSGGRTYYADSVKGRFTISRDNAKNTVYLQMNSLKPEDTAVYYCNARRRSPYSTGVAYDYWGQGTQVTVSS”, the “polyreactivity (PSR sort gate)” value is recorded as “high polyreactivity”.
For the sequence “QVQLVESGGGLVQAGRSIRLTCAASGITFSEYAMGWYRQAPGKEREFVAAISRRGGSTYYADYVKGRFTISSDNAKNTVYLQMNSLKAEDTAVYYCNRRYVTFRFEQDYDYWGQGNQVTVSS”, the “polyreactivity (PSR sort gate)” value is on record as “low polyreactivity”.
As for “QVQLVESGGGLVQAGGSLRLSCAASGSTFAVNAMGWYRQAPGKEREFVASIRGSGGRTSYADSVKGRFTISRDNAKNTVYLQMNCLKPEDTAVYYCAARYVGGTWRSGRYPRSDYWGQGTQVTVSS”, the entry is “high polyreactivity”.
With “QVQLVESGGGLVQAGGSLRLSCAASGSTFDGNAMGWYRQAPGKERELDAAISWNSGSTYYADSVKGRFTISRDNAKNTVYLQMNSLKPEDTAVYYCAATYGTGRRSKYGYWGQGTQVTVSS”, the “polyreactivity (PSR sort gate)” value is “high polyreactivity”.
Consider “QVQLVESGGGLVQAGGSLRLSCAASGLILYSYTMGRYRHAPGKERELVAVISRSGTSTYYADSVKGRFTISRDNAKNTVYLQMNSLKREDTSFYFCAALSRSGPYAYEYWGQGTQVSVSS”, for which the “polyreactivity (PSR sort gate)” value is listed as “high polyreactivity”.
Turning to “QVQLVESGGGLVQAGGSLRLSCADSGSIFRDNVMGWYRQAPGKEREFVAAISRRGGITYYADSVKGRFTISRDNAKNTVYLQMNSLKPEDTAVYYCATTGGRQYGYWGQGTQVTVSS”, the “polyreactivity (PSR sort gate)” value was “high polyreactivity”.
Turning to “QVQLVESGGGLVQAGGSLRLSCDASGSIFAYYAMRWYRPAPGKERELVAAISSRGGNTYYADSVKGRFTISRDYAKNTVYLQMNSLKPEDNAVYYCAAYSASYTFDYWGQGTQVTVSS”, the “polyreactivity (PSR sort gate)” value was “high polyreactivity”.
“QVQLVESGGGLVQAGGSLRLSCAASGRIFVPYVMGWYRQAPGKERELVASISDSDTSTYYADSVKGRFTISRDNAKNTVYIQMNSLKPEDSAVYYCNVDYWGQGTQVTVSS”: the “polyreactivity (PSR sort gate)” value is listed as “low polyreactivity”.
As for “QVHLVESGGGLVQAGGSLRLSCAASGSIFKPYAMGWYRKAPGKERELVAAISGIGGSTYYADSVKGRFTISRDNAKNTVYLQMNSLKPEDTAVYYCAADTFFKIFSEYNYCGQGTQVTVSS”, the “polyreactivity (PSR sort gate)” value is “high polyreactivity”.
Take “QVQLVESGGGLVQAGGSLRLSCAASGSTFGYNAMGWYRQAPGKEREFVAAITRRGGNTYYADSVKGRFTISRDNAKNTVYLQMNSLKPEDTAVYYCAARYLQGRYDYWGQGTQVTVSS”: the “polyreactivity (PSR sort gate)” value is “high polyreactivity”.
“QVHLVESGGRLVQAGGSLRLSCAASGSTFTINVMGWYRQAPGKERELVADISWSGGSTYYADSVKGRFTISRDNAKNTVYSQMNSLYPVYTAVSYCATDGAYWTYYSWYDYWGQGTQVTVSS”: the “polyreactivity (PSR sort gate)” value is “low polyreactivity”.
As for “QVQLVESGGGLVQAGGSLRLSGAASGSTFVIYAMGWSRQAPGKERELVAAIRLGGGSTYYADSVKGRFTISRDNAKNTVYLQMNSLKPEDTEVYYCAAEVDQWYYRGYVYWGQGTQVTVSS”, the “polyreactivity (PSR sort gate)” value is reported as “high polyreactivity”.
With “QVQIVESGGGLVQAGGSLRLSCAASGSIFSRNVMGWYRQAPGKERELVAAISRSGGRTYYADSVKGRFTISRDYAKNTVYLQMNSLKPEDTAVYYCNRDIGGTSVLDDYWGQGTQVTVSS”, the “polyreactivity (PSR sort gate)” value is given as “low polyreactivity”.
In the case of “QVQLVESGGGLVQAGGSLRLSCAASGSTFSPYAMGCYRQAPGKERELVAAINYSSGSTYYADSVKGRFTISRDNAMNTVYLQLNSLKPEDTAVYYCATGWYAGFTYDYWGQGTQVTVSS”, the “polyreactivity (PSR sort gate)” value is reported as “low polyreactivity”.
As for “QVQLVESGGGLVQAGGSLRLSCAASGSTFFRYAMGWYRQAPGKERELVAAITSSGGRTYYADSVKGRFTISRDNAKNTVYLQMNSLKPEDTAVYYCADASGTSPYDYWGQGTQVTVSS”, the “polyreactivity (PSR sort gate)” value is listed as “high polyreactivity”.
Consider “QVQLIESGGGLVQAGGSLRLSCAASGRTFRYNAMGWYRQAPGKERELVAGISTGGSTYYADSVKGRFTISRDNAKNTVYLQMNSLKPEDTAVYYCARYYHARPNGPRSDDYDYWGQGTQVTVSS”, for which the “polyreactivity (PSR sort gate)” value was “low polyreactivity”.
Turning to “QVQLVESGGGLVQAGGSLRLSCAASGSIFSKYAMGWYRQAPGKERELVAAIDWSGGSTYYADSVKGRFTISRDNAKNTVYLQMNSLKPEDTAVYYCNAEYVVADYGYYTIEFDYWGQGTQVTVSS”, the “polyreactivity (PSR sort gate)” value is “low polyreactivity”.
“QVQLVESGGGLVQAGGSLRLSCAASGSTFSRYAMGLYRQATGKDRELVAAISWRGGRTYYADSVKGRFTISRDNAKNTVYLQMNSLKPEDTAVDYCAGLGDDATSYGYWGHGTQVTVSS”: the “polyreactivity (PSR sort gate)” value was “high polyreactivity”.
With “QGQLVESGGGLVQAGGSLRLSCAASGRIFRIYAMGWYRQAPGKERELVARITYSGGSTYYADSVKGRFTISRDNAKNTVYLQMNSLKPEDTAVYYCAADWLGYQYGYWGQGTQVTVSW” the entry was “low polyreactivity”.
In the case of “QVQLVESGGGLVQAGGSLRLSCAASGLIFVANAMGWYRQAPGKERELVAAISRSGGITTYADSVKGRFTISRDNAKNTVYLQMNSLKPEDTAVYYCAADTDPNPLIDYTLPMDYWGQGTQVTVSS”, the “polyreactivity (PSR sort gate)” value was “low polyreactivity”.
For the sequence “QVQLVESGGGLVQAGGSLRLSCAASGFIFSRYGMGWYRQAPGKERELVAAISRSGGSTYYADSVKGRFTISRDNAKNTVYLQMNSLKPEDTAVYYCATAYSWRNADWFAYSYDYWGQGTQVTVSS”, the “polyreactivity (PSR sort gate)” value is “low polyreactivity”.
Regarding “QVQLVESGGGLVQAGGSLRLSCAASGRIIYTYEMGWYRQAPGKERELVAAISGSGGSTYYADSVKGRFTISRDNSKTTLYLQMNRLKPEDTGVYYCNGAYYGYENLYKRGYWGQGSQVTVSS”, the “polyreactivity (PSR sort gate)” value is reported as “high polyreactivity”.
Regarding “QVQLVESGGGLVQAGGSLRLSCAASGSIFSLYAMGWYRQAPGKERELVAAISRGGSTNYADSVKGRFTISRDNAKNTVYLQMNSLKPEDTAVYYCNAGFGVRRKHITFYTWYDYWGQGTQVTVSS”, the “polyreactivity (PSR sort gate)” value is given as “low polyreactivity”.
Turning to “QVQLVESGGGLVQAGGRLRLSCAASGFPFAVYAMGWYRQAPGKERELVATITSAGSTYYADSVKGRFTISRDTAKNTVYLQRNSLKPEDNEVYYCAAAGTYYRGDYGYWGQGTQVTVSS”, the “polyreactivity (PSR sort gate)” value is “low polyreactivity”.
Consider “QVQLVESGGGLVQAGGSLRLSCAASGITFKGNAMGWYRQAPGKERELVAVITWSGGSTYYADSVKGRFTISRDNAKNTVYLQMNSLKPEDTAVYYCAKPWIYGDSQYDYWGQGTQVTVSS”, for which the “polyreactivity (PSR sort gate)” value was “low polyreactivity”.
Consider “QVQLVESGGGLVQAGGSLRLSCAASGSILVSYAMGWYRQAPGKERELVAAITRSGVRTYYADSVKGRFTISRDNAKNSVYLQMNSLKPEDTAVYYCAADTYRSSSPYGYWGQGTQVTVSS”, for which the “polyreactivity (PSR sort gate)” value is given as “high polyreactivity”.
With “QVQLVESGGGLVQAGGSLRLSCAASGRTLYANTMGWYRPAPGKERELVATIPRDGSTNYADSVKGRFTISRDTAKNTVYLQMNSLKPEDTAVYYCNADLWVNLDNDDDYWGQGTQVTVSS” the entry was “low polyreactivity”; with “QGQLVESGGGLVQAGGSLRLSCAASGYIFDWYAMGWYRQAPGKEREFVAAISGSDGSTYYADSVKGRFTISRDNAKNTVYLQMNSLKPEDSAVYYCAADPYYGEMEYWGQGTQVTVSS”, “low polyreactivity”; with “QVQLVESGGGLVQAGGSLRLSCAASGSPSQPYAMGWYRQAPGKVRELVASITNGGITYYADSVKGRFPISRDNANNTVELQMNSLKPEDTAVYYCARTGPSAYWEFDYWGQGTQVTVSS”, “low polyreactivity”.
Regarding “QVQLVESGGGLVQAGGSLRLSCAASGSIFYYYVMGWYRQAPGKERELVAAISSGGGTNYADSVKGRFTISRDNAKNTVYLQMNSLKPEDTAVYYCANASAYGLANDYDYWGQGTQVTVSS”, the “polyreactivity (PSR sort gate)” value is on record as “low polyreactivity”.
Consider “QVQLVESGGGLVQAGGSLRLSCAASGFIFYYYAMGWYRQAPGKERELVAAISRSGGSTYYADSVKGRFTISRDNAKNTVYLQMNSLKPEDTAVYYCAVYGYYALTHWEYDYWGQGTQVTVSS”, for which the “polyreactivity (PSR sort gate)” value was “high polyreactivity”.
As for “QVQLVESGGGLVQAGGSLRLSCAASGRTFVWNAMGWYRQAPGKERELVAAIDWSGGSTYYADSVKGRFTISRDNAKNTVYLQMNSLKPEDTAGYYCAKEYWYRALWYNYWGQGTQVTVSS”, the entry is “high polyreactivity”; as for “QVQLVESGGGLVQAGGSLRLSCAASGFTFSYYDMGWYRQAPGTERELVAAISWSGGSTYYADSVKGRFTISRDNAKITVYLQMNSLKPEDTAVYYCNTDTDTTSSGYVYWGQGTQVTVSS”, “low polyreactivity”.
Consider “QVQLVESGGGLVQAGGSLRLTCAASGSTLIDNVMGWYRQAPGKERELVASITSSDGTTYADSVKGRFTISRDNAKNSVYLQMNSLKPEDTAVYYFAARPWYGTYNYWGEGTQVTVSS”, for which the “polyreactivity (PSR sort gate)” value is “low polyreactivity”.
